These results are taken from paper PMC10092738, “Structural insights into the mechanism of adaptive ribosomal modification by Pseudomonas RimK” (Proteins, 2022).

The stoichiometry N is the number of molecules, sites or subunits per partner or assembly. What is called Km is the concentration of substrate that gives half-maximal velocity.

For one data set, the target named is T1, RimKPS (Pseudomonas syringae group genomosp. 3, UniProt Q88AZ9).
T1 construct: gene rimK; full ORF in pET29a, C-terminal hexahistidine tag, E. coli BL21 (DE3) pLysS; tetramer
T1 sequence (Q88AZ9 1-301): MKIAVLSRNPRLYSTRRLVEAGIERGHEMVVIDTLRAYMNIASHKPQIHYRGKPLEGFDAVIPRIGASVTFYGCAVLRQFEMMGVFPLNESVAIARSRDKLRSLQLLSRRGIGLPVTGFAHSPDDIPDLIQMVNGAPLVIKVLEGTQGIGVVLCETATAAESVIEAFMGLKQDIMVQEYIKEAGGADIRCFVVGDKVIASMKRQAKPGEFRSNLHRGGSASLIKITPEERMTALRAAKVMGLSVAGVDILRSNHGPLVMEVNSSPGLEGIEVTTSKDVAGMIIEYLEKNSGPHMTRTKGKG
Description: PK/LDH-coupled ATPase assay, NADH oxidation at […] nm. It is filed as biochemical. Conditions: activator; 25 uM cdG, 1.5 uM RimK, ATP as substrate; pH 9.0, 20 mM MgSO4, 25 C.

Data set [1] addresses T2, RimKPA (Pseudomonas aeruginosa, UniProt Q9HTZ2).
T2 construct: gene rimK; full ORF in pET29a, C-terminal hexahistidine tag, E. coli BL21 (DE3) pLysS; tetramer
T2 sequence (Q9HTZ2 1-301): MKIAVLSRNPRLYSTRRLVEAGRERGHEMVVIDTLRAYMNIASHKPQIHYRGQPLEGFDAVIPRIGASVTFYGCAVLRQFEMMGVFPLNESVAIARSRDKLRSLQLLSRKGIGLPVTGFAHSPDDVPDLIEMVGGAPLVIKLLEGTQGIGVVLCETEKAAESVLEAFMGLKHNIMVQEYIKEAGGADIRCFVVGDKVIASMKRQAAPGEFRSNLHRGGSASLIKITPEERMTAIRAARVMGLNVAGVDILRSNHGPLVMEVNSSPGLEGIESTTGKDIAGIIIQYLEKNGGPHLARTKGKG
The description is as above. The settings on record: activator; 25 uM cdG, 2.5 uM RimK, ATP as substrate; pH 9.0, 20 mM MgSO4, 25 C. The data set is classed as biochemical.

Data set [2] has as its target P. aeruginosa PAO1 RimK (P. aeruginosa PAO1) (UniProt B7V3U4). The data set can be described thus: crystal structure; RimKPA at 17 mg/ml, sitting-drop vapor diffusion at 293 K, 0.2 M potassium sodium tartrate, 0.1 M bis-tris propane pH 7.5, 20% PEG 3350; 2.4 Å, P2(1), eight copies in the asymmetric unit.
The target in data set [3] is T2, RimKPA. Description: X-ray crystal structure, […] A. The settings on record: ATP binding site; co-purified from expression host; weak density, interpreted as ADP.
Data set [4] addresses P. syringae pv. tomato DC3000 RimK (P. syringae pv. tomato DC3000) (UniProt Q88AZ9).
Substrate in data set [5]: Nc1ncnc2c1ncn2[C@@H]1O[C@H](COP(=O)(O)OP(=O)(O)OP(=O)(O)O)[C@@H](O)[C@H]1O
Description: purified protein. Conditions: 100 mM Tris-HCl pH 9.0, 20 mM MgSO4, 25 C, 1.5 uM RimK, no RimB.

Data set [6] deals with the molecule itself. The data set can be described thus: crystal structure; RimKPS at 3.7 mg/ml, sitting-drop vapor diffusion at 293 K, 0.2 M calcium chloride, 0.1 M HEPES pH 7.0, 20% PEG6000; ATP and cdG in the cryoprotectant; 2.9 Å, P1, 16 copies in the asymmetric unit.
Substrate in data set [7]: Nc1ncnc2c1ncn2[C@@H]1O[C@H](COP(=O)(O)OP(=O)(O)OP(=O)(O)O)[C@@H](O)[C@H]1O
The data set can be described thus: purified protein. Conditions: 100 mM Tris-HCl pH 9.0, 20 mM MgSO4, 25 C, 1.5 uM RimK, no RimB. The data set is classed as biochemical, Pseudomonas fluorescens.

Consider `Nc1nc2c(ncn2[C@@H]2O[C@@H]3COP(=O)(O)O[C@H]4[C@@H](O)[C@H](n5cnc6c(=O)[nH]c(N)nc65)O[C@@H]4COP(=O)(O)O[C@H]3[C@H]2O)c(=O)[nH]1` [cyclic-di-GMP], for which the “PK/LDH-coupled ATPase assay, NADH oxidation at 340 nm” value at RimKPS and at RimKPA [1] was “the addition of cdG stimulated ATPase activity for both proteins” in each case.
For the molecule “P. aeruginosa PAO1 RimK (from UniProt B7V3U4 1-301) (enzyme)”, the stoichiometry N in data set [2] stood at 4.
As to `Nc1ncnc2c1ncn2[C@@H]1O[C@H](COP(=O)(O)OP(=O)(O)O)[C@@H](O)[C@H]1O` [ADP], the “X-ray crystal structure, 2.4 A” value at RimKPA [3] was “ADP and glutamate, of presumed cellular origin, were resolved in the RimKPA structure”.
For the molecule RimB of P. syringae (enzyme), in data set [4], the RimKPS ATPase activity (linked PK/LDH assay) against RimBPS 0–1.2 mM, fitted K m is 120 µM and the RimKPS ATPase activity (linked PK/LDH assay) against RimBPS 0–1.2 mM, fitted V max came to 692.

B1: RimKPA (Pseudomonas aeruginosa PAO1) (protein)
chain: T2 sequence (Q9HTZ2 1-301)
Take B1: the Km in the data set “purified protein [5]” (a separate series in Figure S1 prints K m = 2.1 mM) is 300 µM.

B2: P. syringae pv. tomato DC3000 RimK (enzyme, UniProt Q88AZ9 1-301, looked up)
chain: T1 sequence (Q88AZ9 1-301)
notes: RimK, ATP-dependent glutamate ligase, P. syringae pv. tomato DC3000; open reading frame of rimK cloned into pET29a; Tetramer in the crystal; 16 copies in the asymmetric unit; also called RimKPS; RimKPs; source: E. coli BL21 (DE3) pLysS, purified (His-Trap Excel column)
On to B2, for which the Km in the data set “purified protein [5]” (a separate series in Figure S1 prints K m = 1.85 mM) came to 1000 µM. In addition, the “stoichiometry N” value in data set [6] turned out to be 4.

B3: RimKPF (Pseudomonas [fluorescens] SBW25) (protein)
chain: MKIAVLSRNPRLYSTRRLVEAGVERGHEMVVIDTLRAYMNIASHKPQIHYRGKPLEGFDAVIPRIGASVTFYGCAVLRQFEMMGVFPLNESVAIARSRDKLRSLQLLSRRGIGLPVTGFAHSPDDIPDLIDMVNGAPLVIKVLEGTQGIGVVLCETATAAESVIEAFMGLKQNIMVQEYIKEAGGADIRCFVVGDKVIAAMKRQAKPGEFRSNLHRGGSASLIKITPEERMTALRAAKVMGLSVAGVDILRSNHGPLVMEVNSSPGLEGIETTTGKNVAGIIIEHLEKNGGPNMTRTKGKG
notes: purified recombinant RimK
Take B3: the Michaelis constant (Km) in “purified protein [7]” stood at 800 µM.
